The target of assay [1] is recombinant full-length IsdB (Staphylococcus aureus strain USA300, UniProt Q2FHV2 41-613). Nature of the assay: SPR. A general note: Surface plasmon resonance follows binding to a sensor surface in real time, without labels.
Assay [2] concerns the target IsdB NEAT2 domain (Staphylococcus aureus strain USA300). Briefly: SPR.

B1: D4-10-N1 germline-reverted (IGHV4-39) (antibody, V domains shown)
VH: QLQLQESGPGLVKPSETLSLTCTVSGGSISSSSYYWGWIRQPPGKGLEWIGSIYYSGSTYYNPSLKSRVTISVDTSKNQFSLKLSSVTAADTAVYYCAKPKSRDRGGPGDDYFGMDVWGQGIMVTVSS
VL: DIQLTQSPSFLSASVADRVTITCRASQAVRSSLAWYQQKPGKAPQLLIYSASTLENGVSSRFSGSGPGTEFTLTISSLQPEDVGTYYCQQLNTYPFTFGPGTKVEIK
The term Kd denotes a measure of binding affinity in units of concentration. As for B1, the Kd in assay [1] is 90.7 nM.

B2: D2-06-N2 (IGHV1-69*01 germline-reverted) (antibody, V domains shown)
VH: QVQLVQSGAEVKKPGSSVKVSCKASGGTFSSYAISWVRQAPGQGLEWMGGIIPIFGTANYAQKFQGRVTITADESTSTAYMELSSLRSEDTAVYYCARDRPPGAQFDTWGQGTLVTVSS
VL: not shown
As to B2, binding in assay [2] was characterised by a dissociation constant (Kd) of 24.1 nM.
